# Laboratory results reported in paper PMC7797033, “Single-molecule visualization of human RECQ5 interactions with single-stranded DNA recombination intermediates”.
# B1: dT43-mer (ssDNA)
# DNA: TTTTTTTTTTTTTTTTTTTTTTTTTTTTTTTTTTTTTTTTTTT
# Tests used:
# [1] = biological target: Human wild-type (wt) RAD51 (human) (UniProt Q06609)
# [2] = biological target: RAD51 (human, UniProt Q06609 1-339); assay: BLI; 2 mM ATP, 2 mM Mg2+; 2 uM RAD51; BLI: 25 mM Tris-HCl pH 7.5, 50 mM KCl, 2 mM MgCl2, 200 ug/mL BSA, 0.05% Tween 20, 2 mM ATP, room temperature; curtain buffer not in the material; details: protein: recombinant; tags: none stated for BLI prep; chain copies: 10; label: 5' biotin
# RAD51, sequence (Q06609 whole entry): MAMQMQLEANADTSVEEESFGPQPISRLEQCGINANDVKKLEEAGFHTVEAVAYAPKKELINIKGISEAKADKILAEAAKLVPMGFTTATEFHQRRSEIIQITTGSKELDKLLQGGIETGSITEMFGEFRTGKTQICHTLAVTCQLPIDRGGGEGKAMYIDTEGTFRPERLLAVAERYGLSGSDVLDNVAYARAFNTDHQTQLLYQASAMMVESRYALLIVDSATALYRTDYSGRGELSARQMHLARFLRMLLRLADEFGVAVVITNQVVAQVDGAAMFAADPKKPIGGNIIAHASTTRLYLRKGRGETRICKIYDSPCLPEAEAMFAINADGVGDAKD
# Human wild-type (wt) RAD51 (human), sequence (Q06609 whole entry): as above
Molecule,processivity of unlabeled RECQ5–F666A on RAD51–ssDNA (ssDNA curtains) [1],translocation velocity of unlabeled RECQ5–F666A on RAD51–ssDNA (ssDNA curtains) [1],binding result [2]
RECQ5–F666A (from UniProt O94762 1-991) (enzyme),5200 nt,28 nt/s,–
B1,–,–,binds
